Laboratory results taken from PMC10004744, “H-rGO-Pd NPs Nanozyme Enhanced Silver Deposition Strategy for Electrochemical Detection of Glypican-3”.

Target: Glypican-3 (GPC3) (UniProt P51654 25-554)
Assay: electrochemical sandwich aptasensor (DPV silver stripping; EIS); GPC3 captured by GPC3 antibody on Au NPs@rGO/SPE; aptamer on H-rGO-Pd NPs; response 0.01-100 ug/mL, LOD 3.30 ng/mL (not a Kd); PBS 0.1 mol/L as electrolyte; probe in Tris-EDTA buffer; 5.0 umol/L GPC3Apt; response time 30 min; incubation temperature tested 4-37 C; pH not given in material
Details: protein: commercial; label: adsorbed on H-rGO-Pd NPs nanozyme (signal probe)

Chain of Glypican-3 (GPC3) (P51654 25-554): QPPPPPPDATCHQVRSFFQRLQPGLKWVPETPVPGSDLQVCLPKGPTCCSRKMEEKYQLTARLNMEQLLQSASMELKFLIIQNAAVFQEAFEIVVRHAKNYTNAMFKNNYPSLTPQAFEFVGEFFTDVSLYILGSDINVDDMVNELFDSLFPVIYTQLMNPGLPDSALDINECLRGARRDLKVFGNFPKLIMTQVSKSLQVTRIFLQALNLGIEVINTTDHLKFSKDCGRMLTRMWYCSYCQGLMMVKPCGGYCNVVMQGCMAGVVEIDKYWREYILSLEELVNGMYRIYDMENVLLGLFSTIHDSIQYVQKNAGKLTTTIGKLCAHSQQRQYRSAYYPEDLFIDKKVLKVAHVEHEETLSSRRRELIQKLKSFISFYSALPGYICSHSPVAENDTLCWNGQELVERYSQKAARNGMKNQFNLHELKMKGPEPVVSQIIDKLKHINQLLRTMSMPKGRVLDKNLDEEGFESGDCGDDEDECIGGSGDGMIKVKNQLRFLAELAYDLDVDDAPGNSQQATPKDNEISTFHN

B1: GPC3Apt (ssDNA)
DNA: TAACGCTGACCTTAGCTGGATTTTACATGTTCCA
modifications: 5'-NH2
binding result: binds
